Data set [1] addresses maltose binding protein (MBP)-batVP35 (Myotis lucifigus). The data set is described as follows: SEC-MALS. On the technique in general: In gel filtration, larger molecules generally elute earlier.
The target of data set [2] is eVP35 IID (MBP-eVP35 215-240 as printed) (Ebola virus, UniProt Q05127 215-340). The data set is described as follows: filter binding.

Results on 2 molecules are retold here after article PMC6474348.

Turning to “maltose binding protein (MBP)-batVP35 (natural protein)”, in data set [1], the stoichiometry N (usually the number of molecules, sites or subunits per partner or assembly) came to 4.

B1: 8 bp dsRNA (dsRNA)
RNA 1: CGCAUGCG
RNA 2: CGCAUGCG
As to B1, the binding signal in data set [2] is 1 fraction relative to eVP35.
